In article PMC9654457:

Legend:
Experiment in all cases: two-hybrid; pairwise split-ubiquitin yeast two-hybrid of four baits (slToc159-1AGM, -1GM, -2AGM, -2GM) with isolated prey vectors in NMY51; qualitative PXG assay and quantitative β-galactosidase activity in 96-well plates, 60 min, mean of three experiments
[1] = target: slToc159-2AGM bait protein (tomato (Solanum lycopersicum))
[2] = target: slToc159-1AGM bait protein (tomato (Solanum lycopersicum))
[3] = target: slToc159-2GM bait protein (tomato (Solanum lycopersicum))
[4] = target: slToc159-1GM bait protein (tomato (Solanum lycopersicum))

Substance	increase in interaction strength (β-galactosidase activity) against slToc159-2GM [1] [%]	decrease in interaction strength (β-galactosidase activity) against slToc159-1AGM [4] [%]	also measured
3-oxoacyl-[acyl-carrier-protein] reductase (natural protein)	61.7		
Cell division protein FtsZ (natural protein)			relative increase in interaction strength (β-galactosidase activity) against slToc159-1GM [2]: 66.1%
Chlorophyll a-b binding protein 7 (natural protein)		65.4	increase in interaction strength (β-galactosidase activity) against slToc159-2AGM [3]: 21.7%
Chlorophyll a-b binding protein 8 (natural protein)		49.2	
Chlorophyll a-b binding protein (CAB11) (natural protein)		20.7	
Chlorophyll a-b binding protein CP24 (natural protein)			decrease in affinity (β-galactosidase activity) against Toc159-2AGM [3]: 75.5%
Chlorophyll a/b binding protein Cab-3C (natural protein)		38.4	increase in interaction strength (β-galactosidase activity) against slToc159-2AGM [3]: 1360%
Glutamine synthetase (natural protein)			relative increase in interaction strength (β-galactosidase activity) against slToc159-1GM [2]: 28.8%
Heat shock cognate 70 kDa protein (natural protein)	406		
Hop-interacting protein (THI026) (natural protein)	152		
Photosystem I reaction center subunit II (natural protein)		62	increase in interaction strength (β-galactosidase activity) against slToc159-2AGM [3]: 57.8%
Photosystem I reaction center subunit III (natural protein)		46.3	decrease in affinity (β-galactosidase activity) against Toc159-2AGM [3]: 86%
Photosystem I reaction center subunit IV A (natural protein)			decrease in affinity (β-galactosidase activity) against Toc159-2AGM [3]: 53.7%
Photosystem I subunit O (natural protein)		93.8	decrease in affinity (β-galactosidase activity) against Toc159-2AGM [3]: 72.7%
Photosystem II 23 kDa protein (natural protein)		88.7	decrease in affinity (β-galactosidase activity) against Toc159-2AGM [3]: 89.2%
RuBisCO small subunit 1 (natural protein)			increase in interaction strength (β-galactosidase activity) against slToc159-2AGM [3]: 79.9%
RuBisCO small subunit 2A (natural protein)		62.4	increase in interaction strength (β-galactosidase activity) against slToc159-2AGM [3]: 615%
RuBisCO small subunit 3 (natural protein)		24.5	decrease in affinity (β-galactosidase activity) against Toc159-2AGM [3]: 37.1%
Serine hydroxymethyl transferase (natural protein)	889		
Stearoyl-[acyl-carrier-protein] 9-desaturase (natural protein)	81.1		relative increase in interaction strength (β-galactosidase activity) against slToc159-1GM [2]: 866%
SufE-like protein 1 (natural protein)	509		
photosystem II subunit S (natural protein)		76.6	
thiamine biosynthesis protein (ThiC) (natural protein)	81.6		relative increase in interaction strength (β-galactosidase activity) against slToc159-1GM [2]: 476%
